Assays:
Assay in all cases: cell-based or functional assay
MMP9 = MMP9 (human, UniProt P14780 107-707, limits assumed)
ADAMTS4 = target: T1, ADAMTS4 (human, UniProt O75173 213-685, limits assumed)
T1 sequence (looked up): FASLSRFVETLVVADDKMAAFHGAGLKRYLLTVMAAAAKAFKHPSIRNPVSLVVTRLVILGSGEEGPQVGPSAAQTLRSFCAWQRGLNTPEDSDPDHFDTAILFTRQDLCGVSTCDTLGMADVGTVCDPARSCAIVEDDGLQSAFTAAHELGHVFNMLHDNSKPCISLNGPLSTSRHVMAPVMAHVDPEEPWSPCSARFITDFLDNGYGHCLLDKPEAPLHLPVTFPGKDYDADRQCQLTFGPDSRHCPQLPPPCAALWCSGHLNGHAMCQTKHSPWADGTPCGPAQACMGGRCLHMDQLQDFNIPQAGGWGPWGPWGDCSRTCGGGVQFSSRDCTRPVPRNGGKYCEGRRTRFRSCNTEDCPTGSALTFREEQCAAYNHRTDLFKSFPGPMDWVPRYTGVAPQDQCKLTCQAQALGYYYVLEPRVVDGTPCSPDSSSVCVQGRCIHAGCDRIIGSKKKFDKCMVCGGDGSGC

MMP2 = target: T2, MMP2 (human, UniProt P08253 110-660, limits assumed)
T2 sequence (looked up): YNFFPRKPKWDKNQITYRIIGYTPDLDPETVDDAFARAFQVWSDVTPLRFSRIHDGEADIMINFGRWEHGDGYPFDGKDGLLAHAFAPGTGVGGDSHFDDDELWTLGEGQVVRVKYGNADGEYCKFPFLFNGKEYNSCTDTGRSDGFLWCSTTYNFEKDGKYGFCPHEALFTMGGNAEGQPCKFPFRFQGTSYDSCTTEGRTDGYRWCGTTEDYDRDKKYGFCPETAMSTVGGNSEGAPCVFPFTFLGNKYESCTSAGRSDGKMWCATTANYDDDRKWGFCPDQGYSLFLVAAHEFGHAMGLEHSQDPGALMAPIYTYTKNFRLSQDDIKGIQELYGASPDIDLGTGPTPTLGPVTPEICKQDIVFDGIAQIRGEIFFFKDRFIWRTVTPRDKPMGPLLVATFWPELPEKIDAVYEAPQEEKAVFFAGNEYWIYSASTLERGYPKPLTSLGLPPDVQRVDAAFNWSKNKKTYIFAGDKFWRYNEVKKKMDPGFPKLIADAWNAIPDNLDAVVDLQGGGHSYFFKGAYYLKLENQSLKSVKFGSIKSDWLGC

MMP7 = target: T3, MMP7 (UniProt P09237 95-267, limits assumed)
T3 sequence (looked up): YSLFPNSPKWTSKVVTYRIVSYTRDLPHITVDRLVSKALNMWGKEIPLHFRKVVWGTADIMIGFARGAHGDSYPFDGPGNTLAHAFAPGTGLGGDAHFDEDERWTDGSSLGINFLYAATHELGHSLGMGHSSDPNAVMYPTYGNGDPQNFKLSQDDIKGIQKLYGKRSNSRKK

MMP8 = MMP8 (human, UniProt P22894 101-467, limits assumed)
Elastase = target: Elastase
Cathepsin G = target: T4, Cathepsin G (UniProt P08311 21-244)
T4 sequence (looked up): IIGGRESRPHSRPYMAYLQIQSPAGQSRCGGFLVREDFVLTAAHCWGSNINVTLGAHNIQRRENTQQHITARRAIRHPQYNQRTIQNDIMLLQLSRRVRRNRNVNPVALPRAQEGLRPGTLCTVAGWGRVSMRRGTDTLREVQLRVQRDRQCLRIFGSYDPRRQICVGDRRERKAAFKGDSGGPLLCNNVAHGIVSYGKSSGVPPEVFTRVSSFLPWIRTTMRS

MMP13 = MMP13 (human, UniProt P45452 104-471, limits assumed)
MMP1 = target: T5, MMP1 (human, UniProt P03956 100-469, limits assumed)
T5 sequence (looked up): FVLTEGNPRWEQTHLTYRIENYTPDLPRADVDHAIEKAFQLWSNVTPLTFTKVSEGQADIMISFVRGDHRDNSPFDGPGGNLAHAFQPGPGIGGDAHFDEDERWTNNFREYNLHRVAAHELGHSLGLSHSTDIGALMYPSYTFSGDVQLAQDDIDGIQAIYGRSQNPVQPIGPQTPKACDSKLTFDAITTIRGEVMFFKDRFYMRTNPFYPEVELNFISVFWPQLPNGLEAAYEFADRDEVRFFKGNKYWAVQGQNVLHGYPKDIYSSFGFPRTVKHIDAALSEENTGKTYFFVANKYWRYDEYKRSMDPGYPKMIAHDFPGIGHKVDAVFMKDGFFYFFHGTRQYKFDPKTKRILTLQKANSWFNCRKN

ADAMTS5 = target: T6, ADAMTS5 (human, UniProt Q9UNA0 262-622, limits assumed)
T6 sequence (looked up): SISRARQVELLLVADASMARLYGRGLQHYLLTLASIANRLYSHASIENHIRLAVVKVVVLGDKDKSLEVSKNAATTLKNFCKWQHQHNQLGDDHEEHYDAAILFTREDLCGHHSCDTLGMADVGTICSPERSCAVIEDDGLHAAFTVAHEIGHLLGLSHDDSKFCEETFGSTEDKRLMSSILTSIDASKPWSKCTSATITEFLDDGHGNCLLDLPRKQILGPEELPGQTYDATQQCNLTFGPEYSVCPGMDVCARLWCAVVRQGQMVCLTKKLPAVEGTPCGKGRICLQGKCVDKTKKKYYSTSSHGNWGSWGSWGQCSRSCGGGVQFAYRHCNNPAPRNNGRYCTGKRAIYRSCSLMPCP

MMP3 = MMP3 (human, UniProt P08254 100-477, limits assumed)
Chain of MMP3 (P08254 100-477 limits assumed): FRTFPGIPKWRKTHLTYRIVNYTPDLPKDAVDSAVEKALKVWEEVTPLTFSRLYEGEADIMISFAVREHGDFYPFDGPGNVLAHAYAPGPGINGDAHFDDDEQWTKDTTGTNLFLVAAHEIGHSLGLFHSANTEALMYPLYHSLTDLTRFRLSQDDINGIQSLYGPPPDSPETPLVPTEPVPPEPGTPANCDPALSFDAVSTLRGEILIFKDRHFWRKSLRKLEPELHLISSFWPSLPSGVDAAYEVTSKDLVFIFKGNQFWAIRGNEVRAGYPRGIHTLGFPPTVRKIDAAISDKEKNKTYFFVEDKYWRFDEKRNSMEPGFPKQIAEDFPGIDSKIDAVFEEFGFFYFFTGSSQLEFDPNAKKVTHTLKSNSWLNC

Chain of MMP8 (P22894 101-467 limits assumed): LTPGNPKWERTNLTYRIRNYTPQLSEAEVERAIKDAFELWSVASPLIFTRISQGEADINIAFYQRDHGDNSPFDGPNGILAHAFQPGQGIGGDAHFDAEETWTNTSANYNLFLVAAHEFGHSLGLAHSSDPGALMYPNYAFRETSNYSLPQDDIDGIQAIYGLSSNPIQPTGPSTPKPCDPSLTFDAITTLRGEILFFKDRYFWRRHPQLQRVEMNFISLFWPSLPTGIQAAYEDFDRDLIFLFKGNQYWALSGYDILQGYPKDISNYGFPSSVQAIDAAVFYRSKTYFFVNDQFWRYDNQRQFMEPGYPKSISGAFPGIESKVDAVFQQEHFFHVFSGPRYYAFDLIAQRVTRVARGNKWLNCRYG
Chain of MMP9 (P14780 107-707 limits assumed): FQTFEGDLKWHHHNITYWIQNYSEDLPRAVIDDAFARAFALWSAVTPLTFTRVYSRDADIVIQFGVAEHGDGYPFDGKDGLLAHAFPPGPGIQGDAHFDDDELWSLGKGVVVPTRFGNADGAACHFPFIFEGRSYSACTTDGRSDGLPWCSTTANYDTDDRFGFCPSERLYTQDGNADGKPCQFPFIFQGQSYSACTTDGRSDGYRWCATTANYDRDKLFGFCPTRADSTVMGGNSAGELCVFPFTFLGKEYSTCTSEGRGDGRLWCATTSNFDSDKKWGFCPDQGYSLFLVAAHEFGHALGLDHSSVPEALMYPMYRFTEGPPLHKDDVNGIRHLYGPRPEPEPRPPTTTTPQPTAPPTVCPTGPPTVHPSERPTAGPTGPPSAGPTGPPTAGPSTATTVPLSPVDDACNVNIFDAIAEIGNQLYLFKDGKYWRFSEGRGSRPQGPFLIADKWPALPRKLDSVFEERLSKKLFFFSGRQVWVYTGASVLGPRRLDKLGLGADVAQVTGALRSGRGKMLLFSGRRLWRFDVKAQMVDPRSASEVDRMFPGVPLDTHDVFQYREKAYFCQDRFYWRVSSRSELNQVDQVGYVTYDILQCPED

B1: Variant A2M, bait region SEQ ID NO 7 (other)
chain: SVSGKPQYMVLVPSLLHTETTEKGCVLLSYLNETVTVSASLESVRGNRSLFTDLEAENDVLHCVAFAVPKSSSNEEVMFLTVQVKGPTQEFKKRTTVMVKNEDSLVFVQTDKSIYKPGQTVKFRVVSMDENFHPLNELIPLVYIQDPKGNRIAQWQSFQLEGGLKQFSFPLSSEPFQGSYKVVVQKKSGGRTEHPFTVEEFVLPKFEVQVTVPKIITILEEEMNVSVCGLYTYGKPVPGHVTVSICRKYSDASDCHGEDSQAFCEKFSGQLNSHGCFYQQVKTKVFQLKRKEYEMKLHTEAQIQEEGTVVELTGRQSSEITRTITKLSFVKVDSHFRQGIPFFGQVRLVDGKGVPIPNKVIFIRGNEANYYSNATTDEHGLVQFSINTTNVMGTSLTVRVNYKDRSPCYGYQWVSEEHEEAHHTAYLVFSPSKSFVHLEPMSHELPCGHTQTVQAHYILNGGTLLGLKKLSFYYLIMAKGGIVRTGTHGLLVKQEDMKGHFSISIPVKSDIAPVARLLIYAVLPTGDVIGDSAKYDVENCLANKVDLSFSPSQSLPASHAHLRVTAAPQSVCALRAVDQSVLLMKPDAELSASSVYNLLPEKDLTGFPGPLNDQDDEDCINRHNVYINGITYTPVSSTNEKDMYSFLEDMGLKAFTNSKIRKPKMCPQLEHGPEGEGEGEGIPENFFGVRYSEDLVVQISELEGRGSVEEPHTKLRKYFPETWIWDLVVVNSAGVAEVGVTVPDTITEWKAGAFCLSEDAGLGISSTASLRAFQPFFVELTMPYSVIRGEAFTLKATVLNYLPKCIRVSVQLEASPAFLAVPVEKEQAPHCICANGRQTVSWAVTPKSLGNVNFTVSAEALESQELCGTEVPSVPEHGRKDTVIKPLLVEPEGLEKETTFNSLLCPSGGEVSEELSLKLPPNVVEESARASVSVLGDILGSAMQNTQNLLQMPYGCGEQNMVLFAPNIYVLDYLNETQQLTPEIKSKAIGYLNTGYQRQLNYKHYDGSYSTFGERYGRNQGNTWLTAFVLKTFAQARAYIFIDEAHITQALIWLSQRQKDNGCFRSSGSLLNNAIKGGVEDEVTLSAYITIALLEIPLTVTHPVVRNALFCLESAWKTAQEGDHGSHVYTKALLAYAFALAGNQDKRKEVLKSLNEEAVKKDNSVHWERPQKPKAPVGHFYEPQAPSAEVEMTSYVLLAYLTAQPAPTSEDLTSATNIVKWITKQQNAQGGFSSTQDTVVALHALSKYGAATFTRTGKAAQVTIQSSGTFSSKFQVDNNNRLLLQQVSLPELPGEYSMKVTGEGCVYLQTSLKYNILPEKEEFPFALGVQTLPQTCDEPKAHTSFQISLSVSYTGSRSASNMAIVDVKMVSGFIPLKPTVKMLERSNHVSRTEVSSNHVLIYLDKVSNQTLSLFFTVLQDVPVRDLKPAIVKVYDYYETDEFAIAEYNAPCSKDLGNADYKDDDDKGASHHHHHH
In the case of B1, the “Protease Inhibition (% of WT)” value (MMP9) is reported as 39 % of WT, the “Protease Inhibition (% of WT)” value (ADAMTS4) is reported as 222 % of WT and the “Protease Inhibition (% of WT)” value (MMP2) is reported as 58 % of WT. The “Protease Inhibition (% of WT)” value (MMP7) was 147 % of WT, the “Protease Inhibition (% of WT)” value (MMP8) was 81 % of WT and the “Protease Inhibition (% of WT)” value (Elastase) was 131 % of WT. For the same binder, the “Protease Inhibition (% of WT)” value (Cathepsin G) was 157 % of WT, the “Protease Inhibition (% of WT)” value (MMP13) was 145 % of WT and the “Protease Inhibition (% of WT)” value (MMP1) was 117 % of WT. For the same binder, the “Protease Inhibition (% of WT)” value (ADAMTS5) was 79 % of WT and the “Protease Inhibition (% of WT)” value (MMP3) was 127 % of WT.

B2: Variant A2M, bait region SEQ ID NO 8 (other)
chain: SVSGKPQYMVLVPSLLHTETTEKGCVLLSYLNETVTVSASLESVRGNRSLFTDLEAENDVLHCVAFAVPKSSSNEEVMFLTVQVKGPTQEFKKRTTVMVKNEDSLVFVQTDKSIYKPGQTVKFRVVSMDENFHPLNELIPLVYIQDPKGNRIAQWQSFQLEGGLKQFSFPLSSEPFQGSYKVVVQKKSGGRTEHPFTVEEFVLPKFEVQVTVPKIITILEEEMNVSVCGLYTYGKPVPGHVTVSICRKYSDASDCHGEDSQAFCEKFSGQLNSHGCFYQQVKTKVFQLKRKEYEMKLHTEAQIQEEGTVVELTGRQSSEITRTITKLSFVKVDSHFRQGIPFFGQVRLVDGKGVPIPNKVIFIRGNEANYYSNATTDEHGLVQFSINTTNVMGTSLTVRVNYKDRSPCYGYQWVSEEHEEAHHTAYLVFSPSKSFVHLEPMSHELPCGHTQTVQAHYILNGGTLLGLKKLSFYYLIMAKGGIVRTGTHGLLVKQEDMKGHFSISIPVKSDIAPVARLLIYAVLPTGDVIGDSAKYDVENCLANKVDLSFSPSQSLPASHAHLRVTAAPQSVCALRAVDQSVLLMKPDAELSASSVYNLLPEKDLTGFPGPLNDQDDEDCINRHNVYINGITYTPVSSTNEKDMYSFLEDMGLKAFTNSKIRKPKMCPQLEHGPEGEGEGEGIPENFFGVLYSEDLVVQISELEGRGSVEEPHTKLRKYFPETWIWDLVVVNSAGVAEVGVTVPDTITEWKAGAFCLSEDAGLGISSTASLRAFQPFFVELTMPYSVIRGEAFTLKATVLNYLPKCIRVSVQLEASPAFLAVPVEKEQAPHCICANGRQTVSWAVTPKSLGNVNFTVSAEALESQELCGTEVPSVPEHGRKDTVIKPLLVEPEGLEKETTFNSLLCPSGGEVSEELSLKLPPNVVEESARASVSVLGDILGSAMQNTQNLLQMPYGCGEQNMVLFAPNIYVLDYLNETQQLTPEIKSKAIGYLNTGYQRQLNYKHYDGSYSTFGERYGRNQGNTWLTAFVLKTFAQARAYIFIDEAHITQALIWLSQRQKDNGCFRSSGSLLNNAIKGGVEDEVTLSAYITIALLEIPLTVTHPVVRNALFCLESAWKTAQEGDHGSHVYTKALLAYAFALAGNQDKRKEVLKSLNEEAVKKDNSVHWERPQKPKAPVGHFYEPQAPSAEVEMTSYVLLAYLTAQPAPTSEDLTSATNIVKWITKQQNAQGGFSSTQDTVVALHALSKYGAATFTRTGKAAQVTIQSSGTFSSKFQVDNNNRLLLQQVSLPELPGEYSMKVTGEGCVYLQTSLKYNILPEKEEFPFALGVQTLPQTCDEPKAHTSFQISLSVSYTGSRSASNMAIVDVKMVSGFIPLKPTVKMLERSNHVSRTEVSSNHVLIYLDKVSNQTLSLFFTVLQDVPVRDLKPAIVKVYDYYETDEFAIAEYNAPCSKDLGNADYKDDDDKGASHHHHHH
In the case of B2, the “Protease Inhibition (% of WT)” value (MMP9) is reported as 9 % of WT, the “Protease Inhibition (% of WT)” value (ADAMTS4) is reported as 120 % of WT and the “Protease Inhibition (% of WT)” value (MMP2) is reported as 33 % of WT. The “Protease Inhibition (% of WT)” value (MMP7) was 64 % of WT, the “Protease Inhibition (% of WT)” value (MMP8) was 28 % of WT and the “Protease Inhibition (% of WT)” value (Elastase) was 39 % of WT. The “Protease Inhibition (% of WT)” value (Cathepsin G) was 12 % of WT, the “Protease Inhibition (% of WT)” value (MMP13) was 56 % of WT and the “Protease Inhibition (% of WT)” value (MMP1) was 48 % of WT. The “Protease Inhibition (% of WT)” value (ADAMTS5) was 97 % of WT and the “Protease Inhibition (% of WT)” value (MMP3) was < 100 % of WT.

— patent US20230250154A1 (CYTONICS, published 2023)
